Experimental data taken from patent publication US20160032017A1 (ACADEMIA SINICA, published 2016).

Columns and labels:
[1] = molecular target: T1, synthetic 22 amino acid peptide P(25→46), GLPRAAGGSVPHPRCHCGAGRA (human); test: ELISA, plate coated with P(25→46)
T1 construct: Residues 25-46 are counted on the CεmX domain; The peptide was coated on the ELISA plates without a carrier; the OVA conjugate was used only for immunization; also called target antigen peptide
T1 peptide: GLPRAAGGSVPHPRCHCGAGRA
Experimental: To screen hybridomas for antibody secretion and to map the epitopes of secreted antibodies, the wells of microtiter plates were coated by incubating them overnight at 4° C. with 10 μg/mL of P(25→46) in 0.1 M carbonate buffer, pH 9.6. The wells were first blocked for 1 hour with 1% bovine serum albumin (BSA) in phosphate buffered saline (PBS), pH7.3, and then incubated for 1 hour at 37° C. at various dilutions with antisera or control antibodies. The wells were then washed and the ligand-bound antibodies detected by horse radish peroxidase (HRP)-conjugated goat anti-mouse IgG, Fcγ fragment specific (Jackson ImmunoResearch), or anti-human IgG, Fcγ fragment specific (Jackson ImmunoResearch) at a dilution of 1:10,000. To detect the ligand-bound antibodies, the wells were incubated for 1 hour at 37° C., followed by incubation with TMB (3,3′,5,5′-tetramethylbenzidine) substrate (Clinical Scientific Products).
One of the monoclonal antibodies specific for an epitope within the P(25→46), herein designated mAb 23B11, was subjected to epitope mapping studies. Several peptides representing parts of the consecutive P(25→46) were synthesized, including P(29→46) (SEQ ID NO:1); P(31→46) (SEQ ID NO:3), P(33→46) (SEQ ID NO:4), P(27→40) (SEQ ID NO:5), and […] (SEQ ID NO:6), as shown in FIG. 1A. […] The reactivity of mAb 23B11 with the synthesized peptides were analyzed by ELISA. […]

[2] = molecular target: T2, synthetic peptide P(27→40) (human); test: ELISA on synthetic CεmX peptides
T2 construct: Residues are counted on the CεmX domain; also called Peptide M1′-8
T2 peptide: PRAAGGSVPHPRCH

[3] = molecular target: T3, synthetic peptide P(29→46), AAGGSVPHPRCHCGAGRA (human); test: ELISA on synthetic CεmX peptides
T3 construct: Residues are counted on the CεmX domain
T3 peptide: AAGGSVPHPRCHCGAGRA

[4] = molecular target: T4, synthetic peptide P(33→46), SVPHPRCHCGAGRA (human); test: ELISA on synthetic CεmX peptides
T4 construct: Residues are counted on the CεmX domain
T4 peptide: SVPHPRCHCGAGRA

Measured: binding result

B1: monoclonal antibody mAb 23B11 (antibody, V domains shown)
VH: EVQLQQSGAELMKPGASVKISCKASGYTFSSYWIEWVYQRPGHGLEWIGEILPGSGSSNYNEKFEGKATFTADTSSNTAYMHLSSLTSEDSAVYYCARWDYYGGRGFDYWGQGTTLTAAA
VL: DIVMTQAAPSVPVTPGESVSISCRSSKSLLHSNGNIYLHWFLQRPGQSPQLLIYRMSNVASGVPDRFSGSGSGTVFTLRISRVEAEDVGVYYCMQNLEYPLTFGAGTKLELK
notes: Murine hybridoma antibody from BALB/c mice, detected with anti-mouse IgG
binds: [1] | [2] | [3] | [4]
